A word on the IC50: it is the midpoint of a concentration-inhibition curve. Lower therefore signals greater potency.

Where only a bound is given, the exact number is not on record here.

Test [1] has as its target T1, P domain of norovirus GII.10 (Vietnam026) (Norovirus GII.10 Vietnam026).
T1 construct: domain: P domain; also called GII.10 P domain; GII.10 P domains
Put plainly: direct ELISA; plates coated with 7 µg/ml GII.10 P domain; His-tagged nanobody serially diluted from ˜10 µM; anti-His HRP. (In general: ELISA stands for enzyme-linked immunosorbent assay.)

In test [2] the target is T2, Norovirus GI.1 Norwalk virus virus-like particles (VLPs) (Norovirus GI.1 Norwalk virus, UniProt Q83884 1-530).
T2 construct: also called GI.1 VLPs; the member of genogroup I included in this study
T2 sequence: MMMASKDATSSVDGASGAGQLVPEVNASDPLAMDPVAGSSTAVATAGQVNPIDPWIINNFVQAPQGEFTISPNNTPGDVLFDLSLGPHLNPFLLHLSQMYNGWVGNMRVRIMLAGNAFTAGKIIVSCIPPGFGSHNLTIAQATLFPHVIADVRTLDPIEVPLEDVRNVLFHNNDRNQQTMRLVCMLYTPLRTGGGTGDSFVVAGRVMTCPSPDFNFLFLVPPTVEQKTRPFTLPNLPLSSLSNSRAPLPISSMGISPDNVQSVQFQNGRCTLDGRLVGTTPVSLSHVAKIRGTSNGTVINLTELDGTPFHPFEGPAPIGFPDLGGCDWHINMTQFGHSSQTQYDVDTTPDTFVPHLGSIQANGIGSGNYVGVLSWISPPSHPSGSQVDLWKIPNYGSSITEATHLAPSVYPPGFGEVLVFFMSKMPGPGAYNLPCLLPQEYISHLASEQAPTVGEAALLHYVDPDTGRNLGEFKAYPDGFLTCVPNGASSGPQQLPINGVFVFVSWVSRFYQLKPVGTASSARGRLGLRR
Kind of test: direct ELISA; plates coated with VLPs; His-tagged nanobody serially diluted from ˜10 µM; anti-His HRP.

Test [3] has as its target T3, Norovirus GII.12 Hiro virus-like particles (VLPs) (Norovirus GII.12 Hiro).
T3 construct: also called GII.12 VLPs
Put plainly: direct ELISA; plates coated with 2 µg/ml VLPs; His-tagged nanobody serially diluted from ˜10 µM; anti-His HRP.

The target in test [4] is T4, Norovirus GII.4 NSW-2012 virus-like particles (VLPs) (Norovirus GII.4 NSW-2012, UniProt P54635 1-538).
T4 construct: also called GII.4 VLPs; GII.4 (NSW-2012) VLPs
T4 chain: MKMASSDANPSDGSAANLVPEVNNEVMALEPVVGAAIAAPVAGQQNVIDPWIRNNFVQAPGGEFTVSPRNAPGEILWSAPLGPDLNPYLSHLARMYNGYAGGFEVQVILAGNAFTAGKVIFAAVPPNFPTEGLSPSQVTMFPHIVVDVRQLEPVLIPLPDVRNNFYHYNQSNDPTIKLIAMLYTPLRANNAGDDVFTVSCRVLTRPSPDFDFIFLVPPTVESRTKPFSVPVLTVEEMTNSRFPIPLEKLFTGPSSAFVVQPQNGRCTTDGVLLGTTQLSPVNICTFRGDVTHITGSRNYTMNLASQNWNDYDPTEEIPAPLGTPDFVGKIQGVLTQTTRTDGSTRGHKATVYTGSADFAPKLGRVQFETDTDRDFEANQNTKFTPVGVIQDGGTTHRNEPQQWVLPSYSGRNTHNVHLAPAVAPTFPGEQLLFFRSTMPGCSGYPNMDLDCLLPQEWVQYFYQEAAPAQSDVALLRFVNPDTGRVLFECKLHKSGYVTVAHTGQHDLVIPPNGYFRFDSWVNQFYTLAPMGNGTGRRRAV
The test is described as above.

Test [5] concerns the target T5, Norovirus GII.10 Vietnam026 virus-like particles (VLPs) (Norovirus GII.10 Vietnam026).
T5 construct: also called GII.10 VLPs; GII.10 norovirus virus-like particles
T5 chain: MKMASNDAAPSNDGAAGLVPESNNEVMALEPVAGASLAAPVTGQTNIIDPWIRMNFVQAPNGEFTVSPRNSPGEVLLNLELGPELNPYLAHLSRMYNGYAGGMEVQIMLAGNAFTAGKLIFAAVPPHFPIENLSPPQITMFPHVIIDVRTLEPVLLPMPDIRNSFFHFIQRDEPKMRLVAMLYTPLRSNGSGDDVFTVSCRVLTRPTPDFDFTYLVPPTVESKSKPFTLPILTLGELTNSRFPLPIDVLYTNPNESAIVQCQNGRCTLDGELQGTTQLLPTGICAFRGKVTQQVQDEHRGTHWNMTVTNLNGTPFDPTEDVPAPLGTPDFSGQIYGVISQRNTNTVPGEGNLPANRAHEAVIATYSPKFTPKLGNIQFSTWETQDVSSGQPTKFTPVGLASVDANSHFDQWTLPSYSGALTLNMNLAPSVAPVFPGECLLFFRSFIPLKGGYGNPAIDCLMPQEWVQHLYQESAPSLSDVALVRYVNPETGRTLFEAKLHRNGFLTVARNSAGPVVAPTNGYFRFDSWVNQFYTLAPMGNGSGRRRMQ
Put plainly: direct ELISA; plates coated with 2 µg/ml VLPs; His-tagged nanobody serially diluted from ˜10 µM; anti-His HRP; detection limit OD 0.15.

In test [6] the target is T4, Norovirus GII.4 NSW-2012 virus-like ….
For test [7], the target named is T5, Norovirus GII.10 Vietnam026 virus-like ….

B1: Nano-85 (VHH)
VHH: DVQLVESGGGLVQPGGSLRLSCAASGSIFSIYAMGWYRQAPGKQRELVASISSGGGTNYADSVKGRFTISGDNAKNTVYLQMNSLKPEDTAVYYCKREDYSAYAPPSGSRGRGTQVTVSS
notes: also called the Nanobody; single-domain antibody (VHH) of the invention
Consider B1, for which the “dilution at which P domains were detected” value in test [1] is 17800 fold dilution. Besides, the “dilution at which VLPs were detected” value in test [2] was determined as 4000 fold dilution; in test [3] it was 32000 fold dilution; in test [4] it was 32000 fold dilution; in test [5], 64000 fold dilution. The IC50 in test [6] and in test [7] was less than 10 µg/mL in each case.

For the origin of these results see patent publication US20170247434A1 (DEUTSCHES KREBSFORSCHUNGSZENTRUM, published 2017).
